# In patent publication US9340769B2 (priority 2008, dated 2016):
# Columns and labels:
# [1] = tested on: stratum corneum barrier; assay type: in vivo, ICR mice
# [2] = tested on: HaCaT cells co-cultured with P. acnes; assay: P. acnes-mediated cell death: neutralization assay / ASMase inhibitor, HaCaT; details: desipramine 10 μM, 14 hr; 43.4% with PBS vehicle
# [3] = tested on: P. acnes; assay: Effect of desipramine on P. acnes-induced inflammation in vivo (ear thickness); design: species or system ICR mice; details: 20 mg/kg i.p. 30 min before challenge; 24 hr
# Description: (A) Amount of soluble ASMase in mouse ear increased 24 hr after bacteria challenge. Ears of ICR mice were intradermally injected with of P. acnes in PBS (1×10^7 CFU/20 μl; left ear) or PBS (20 μl; right ear), and excised after 24 hr. Ear tissue was obtained with a 8 mm biopsy and homogenized in PBS. The supernatant (1 ug of total protein) was subjected to Western blotting. ASMase (upper panels) and GAPDH (lower panels) were detected with goat anti-ASMase IgG followed by anti-GAPDH IgG (left panels). Normal goat or mouse IgG was used as a negative control for the detection (right panels). (B) P. acnes challenge into mouse ear attracted CD11b+ macrophages which highly expressed ASMase. Frozen sections of mouse ear obtained 24 after bacteria challenge were stained with biotinylated anti-mouse CD11b IgG, a conventional macrophage marker, and TRITC-streptavidin conjugate, followed by Goat anti-ASMase IgG and anti-goat IgG-TRITC conjugate. The nuclei were stained with DAPI (blue). Bar=200 μm. (C) Transmission electron microscopy (10,000× magnification) was used to visualize colonized P. acnes and ruptured cell membrane in mouse ears injected with P. acnes or PBS. PA, P. acnes; CM, cell membrane; NC, nucleus. Bar=1 μm. (D) Systemic pre-treatment of ICR mice with selective ASMase inhibitor relieved P. acnes-induced inflammation. […]
# [4] = tested on: P. acnes; assay: P. acnes-induced ear thickness/redness in immunized mice (subcutaneous ear challenge)
# [5] = tested on: sialidase; assay: Immunogenicity of sialidase vaccines (Western blot, antigen microarray); details: recombinant protein with Freund (in)complete adjuvants; three weeks after immunization
# [6] = tested on: human SZ95 sebocytes; assay: Susceptibility of sialidase-treated sebocytes to P. acnes (cell death by trypan blue, adherence by CFU); details: pre-treatment 10 μg/ml for 2 h; GFP no effect
# [7] = tested on: sialic acids on the surface of human SZ95 sebocytes; assay: Sialidase enzyme activity: removal of surface sialic acids from sebocytes (MAA lectin I / streptavidin-FITC flow cytometry); details: compared among three cloned P. acnes sialidases
molecule,measurement,setting,value
"CCCCCCCCCCCCCCO[C@@H]1O[C@H](CO)[C@@H](O[C@H]2O[C@H](CO)[C@@H](O)[C@H](O)[C@H]2O)[C@H](O)[C@H]1O [TDM, tetradecyl-β-D-maltoside]",effect on stratum corneum barrier,"[1]; 0.125% in sterile water, 15 min",slightly disrupts
same,effect on epicutaneous immunization of E. coli based-tetanus toxin C fragment vaccine,"[1]; mouse, in vivo",greatly enhances
CNCCCN1c2ccccc2CCc2ccccc21 [desipramine],"P. acnes-induced cell death, reduced by (HaCaT)",[2],21.9%
same,P. acnes-induced ear swelling,[3],significantly relieved
"sialidase: recombinant P. acnes cell wall-anchored sialidase (gi|50843035) 6×NH fusion protein; enzyme and, with Freund adjuvants, vaccine (protein, left off: small tags and cut ends) MTLTTKLSALAIAGIMAVIGAPMVTQSAMASGRAPAPDAATTQPKLVTGDITSTDQSGTHLFFGKNIVRNAKGAIMKVDRTWPAAVPAPLPDVRADSSTRMLLGPVVDLAVNEHPAGVFYRIPALATASNGDLLASYDLRPGSAADAPNPNSIVQRRSRDNGRTRGPQTVIHAGTLGRRKVGYSDPSYLVDPATGHILNFHVKSYDRGFATSEVGTDPDDRHVLHAEVSTSTDNGHTWTYRDITREITPDPTTRTRFVASGQGIALLHGPHAGGLIAQMTVRNSVGQQAQSIYSDDHGITWHAGNPVGRMMDENKVVELSDGTLMLNSRDAARSGRRKVAYSHDGGLTWGPVKLVDDLIDPTNNAQIIRAYPNARAGSAKARILLFTNARNATERVNGTLSVSCDDGRTWVSHQTYMPGEVGYTTAAVQSDGALGVLWERDGIRYSTIPMGWLNSVCPVAPSGRPTSGEPTSGTSLPLTATPSGSLHGGASSRPTSLPHTGD","elevation of ear thickness, reduced by","[4]; recombinant sialidase with Freund (in)complete adjuvants vs GFP-immunized, P. acnes 10^7 CFU s.c.",more than 50%
same,"recovery of ear redness, days after P. acnes challenge","[4]; sialidase-immunized, GFP-immunized 7 days",3 days
same,anti-sialidase antibody in serum (Western blot),[5],strong band
same,adherence of P. acnes into sebocytes,[6],considerably increased
same,enzyme activity in removing the sialic acids from the surface of human SZ95 sebocytes,[7],strongest enzyme activity
